No end group written: not given here. *: point of attachment. Biotin = O=C1N[C@H]2[C@H](CS[C@H]2CCCCC(=O)*)N1
How the values were obtained:
asyn_113-127_113A [1] = target: T1, asyn_113-127_113A (human); assay: Ala-scan peptide ELISA, row D, run 2
T1 construct: substitution is already in the entry; also called pep2
T1 peptide: Biotin-AEDMPVDPDNEAYEM
Experimental: (§1) 96-well Nunc plates were coated with 50 μL per well of 1 μg/mL streptavidin (from Jackson Immuno Research Laboratory) in PBS at 4° C. overnight. The plates were washed three times with PBST, and blocked with PBS containing 3% BSA at room temperature for 1 hour. The N-terminal biotinylated peptides were dissolved in Milli Q water to a concentration of 2 mg/mL, then further diluted to a concentration of 2 μg/mL with PBS. 50 μl of the diluted peptide was applied to the streptavidin-coated plates and incubated at 4° C. overnight. 2 μg/mL of biotinylated human alpha-synuclein was used as the positive control. The plates were washed three times with PBST before use. Purified antibody was diluted by serial dilution methods, from 20 μg/mL to 1 ng/mL, and 50 μL of the antibody solution was added to the peptide-coated wells. The plates were incubated for 1 hour at room temperature, then washed three times with PBST. Secondary detection antibody (goat anti-rat HRP (obtained from Southern Biotech)) was added with 1:5,000 dilutions and incubated for 1 hour at room temperature, then washed three times with PBST. Plates were developed with 50 μL/well of TMB substrate (Thermo Fisher) and quenched with 50 μL/well of 1 N sulfuric acid. The signal was quantified on a BioTek® plate reader at A450. A parallel repeat was performed for each peptide in a separate plate.

asyn_113-127_115A = target: T2, asyn_113-127_115A (human); assay: Ala-scan peptide ELISA, row D, run 2
T2 construct: substitution is already in the entry; also called pep4
T2 peptide: Biotin-LEAMPVDPDNEAYEM
Experimental: as §1

asyn_113-127_124P [2] = target: T3, asyn_113-127_124P (human); assay: Ala-scan peptide ELISA, row D, run 2
T3 construct: substitution is already in the entry; also called pep14
T3 peptide: Biotin-LEDMPVDPDNEPYEM
Experimental: as §1

asyn_113-127_116A [3] = target: T4, asyn_113-127_116A (human); assay: Ala-scan peptide ELISA, row D, run 2
T4 construct: substitution is already in the entry; also called pep5
T4 peptide: Biotin-LEDAPVDPDNEAYEM
Experimental: as §1

asyn_113-127_122A [4] = target: T5, asyn_113-127_122A (human); assay: Ala-scan peptide ELISA, row D, run 2
T5 construct: substitution is already in the entry; also called pep11
T5 peptide: Biotin-LEDMPVDPDAEAYEM
Experimental: as §1

asyn_113-127_125A = target: T6, asyn_113-127_125A (human); assay: Ala-scan peptide ELISA, row D, run 2
T6 construct: substitution is already in the entry; also called pep15
T6 peptide: Biotin-LEDMPVDPDNEAAEM
Experimental: as §1

asyn_113-127_126A [5] = target: T7, asyn_113-127_126A (human); assay: Ala-scan peptide ELISA, row D, run 2
T7 construct: substitution is already in the entry; also called pep16
T7 peptide: Biotin-LEDMPVDPDNEAYAM
Experimental: as §1

asyn_113-127_114A [6] = target: T8, asyn_113-127_114A (human); assay: Ala-scan peptide ELISA, row D, run 2
T8 construct: substitution is already in the entry; also called pep3
T8 peptide: Biotin-LADMPVDPDNEAYEM
Experimental: as §1

asyn_113-127_118A [7] = target: T9, asyn_113-127_118A (human); assay: Ala-scan peptide ELISA, row D, run 2
T9 construct: substitution is already in the entry; also called pep7
T9 peptide: Biotin-LEDMPADPDNEAYEM
Experimental: as §1

asyn_113-127_117A = target: T10, asyn_113-127_117A (human); assay: Ala-scan peptide ELISA, row D, run 2
T10 construct: substitution is already in the entry; also called pep6
T10 peptide: Biotin-LEDMAVDPDNEAYEM
Experimental: as §1

asyn_113-127_124G [8] = target: T11, asyn_113-127_124G (human); assay: Ala-scan peptide ELISA, row D, run 2
T11 construct: substitution is already in the entry; also called pep13
T11 peptide: Biotin-LEDMPVDPDNEGYEM
Experimental: as §1

asyn_113-127 [9] = target: T12, asyn_113-127 (human); assay: Ala-scan peptide ELISA, row D, run 2
T12 construct: also called pep1
T12 peptide: Biotin-LEDMPVDPDNEAYEM
Experimental: as §1

[10] = target: T13, biotinylated human alpha-synuclein (human, UniProt P37840 1-140); assay: Ala-scan peptide ELISA, row D, run 2
Experimental: as §1

asyn_113-127_120A [11] = target: T14, asyn_113-127_120A (human); assay: Ala-scan peptide ELISA, row D, run 2
T14 construct: substitution is already in the entry; also called pep9
T14 peptide: Biotin-LEDMPVDADNEAYEM
Experimental: as §1

asyn_113-127_121A = target: T15, asyn_113-127_121A (human); assay: Ala-scan peptide ELISA, row D, run 2
T15 construct: substitution is already in the entry; also called pep10
T15 peptide: Biotin-LEDMPVDPANEAYEM
Experimental: as §1

asyn_113-127_127A [12] = target: T16, asyn_113-127_127A (human); assay: Ala-scan peptide ELISA, row D, run 2
T16 construct: substitution is already in the entry; also called pep17
T16 peptide: Biotin-LEDMPVDPDNEAYEA
Experimental: as §1

asyn_113-127_123A [13] = target: T17, asyn_113-127_123A (human); assay: Ala-scan peptide ELISA, row D, run 2
T17 construct: substitution is already in the entry; also called pep12
T17 peptide: Biotin-LEDMPVDPDNAAYEM
Experimental: as §1

asyn_113-127_119A [14] = target: T18, asyn_113-127_119A (human); assay: Ala-scan peptide ELISA, row D, run 2
T18 construct: substitution is already in the entry; also called pep8
T18 peptide: Biotin-LEDMPVAPDNEAYEM
Experimental: as §1

asyn_113-127_113A [15] = target: T1, asyn_113-127_113A; assay: Ala-scan peptide ELISA, row F, run 1
Experimental: as §1

asyn_113-127_124P [16] = target: T3, asyn_113-127_124P; assay: Ala-scan peptide ELISA, row F, run 1
Experimental: as §1

asyn_113-127_114A [17] = target: T8, asyn_113-127_114A; assay: Ala-scan peptide ELISA, row F, run 1
Experimental: as §1

asyn_113-127_118A [18] = target: T9, asyn_113-127_118A; assay: Ala-scan peptide ELISA, row F, run 1
Experimental: as §1

asyn_113-127_124G [19] = target: T11, asyn_113-127_124G; assay: Ala-scan peptide ELISA, row F, run 1
Experimental: as §1

asyn_113-127 [20] = target: T12, asyn_113-127; assay: Ala-scan peptide ELISA, row F, run 1
Experimental: as §1

[21] = target: T13, biotinylated human alpha-synuclein; assay: Ala-scan peptide ELISA, row F, run 1
Experimental: as §1

asyn_113-127_120A [22] = target: T14, asyn_113-127_120A; assay: Ala-scan peptide ELISA, row F, run 1
Experimental: as §1

asyn_113-127_123A [23] = target: T17, asyn_113-127_123A; assay: Ala-scan peptide ELISA, row F, run 1
Experimental: as §1

asyn_113-127_119A [24] = target: T18, asyn_113-127_119A; assay: Ala-scan peptide ELISA, row F, run 1
Experimental: as §1

asyn_113-127_113A [25] = target: T1, asyn_113-127_113A; assay: Ala-scan peptide ELISA, row H, run 1
Experimental: as §1

asyn_113-127_116A [26] = target: T4, asyn_113-127_116A; assay: Ala-scan peptide ELISA, row H, run 1
Experimental: as §1

asyn_113-127_122A [27] = target: T5, asyn_113-127_122A; assay: Ala-scan peptide ELISA, row H, run 1
Experimental: as §1

asyn_113-127_126A [28] = target: T7, asyn_113-127_126A; assay: Ala-scan peptide ELISA, row H, run 1
Experimental: as §1

asyn_113-127_114A [29] = target: T8, asyn_113-127_114A; assay: Ala-scan peptide ELISA, row H, run 1
Experimental: as §1

asyn_113-127_127A [30] = target: T16, asyn_113-127_127A; assay: Ala-scan peptide ELISA, row H, run 1
Experimental: as §1

asyn_113-127_123A [31] = target: T17, asyn_113-127_123A; assay: Ala-scan peptide ELISA, row H, run 1
Experimental: as §1

asyn_113-127_119A [32] = target: T18, asyn_113-127_119A; assay: Ala-scan peptide ELISA, row H, run 1
Experimental: as §1

B1: 20H4 (antibody, rat IgG2b, V domains shown)
VH: AVQLVESGGGLVQPKESLKISCAASGFTFSNAAMYWVRQAPGKGLELLARIRTKPNNYATYHADSVKGRFTISRDDSQSMVYLHMGNLKTEDTAMYYCTADMATGDYWGPGVMVTVSS
VL: DIQMTQSPPVLSVSVGDRVTLSCKASQNINKNLDWYQQKHGEAPKPLIYSTNNLQTGVPSRFSGSGSGTDYTLTISSLQPEDVATYYCYQYKSAWTFGGGTKLELR
notes: also called clone 20H4; rat 20H4
Which A450 (asyn_113-127_113A [1]) does the source give for B1 here?
The A450 was 0.339 OD.

And the A450 (asyn_113-127_115A)?
Its A450 is 0.266 OD.

What about the A450 (asyn_113-127_124P [2]) of the same binder?
Its A450 is 0.05 OD.

And the A450 (asyn_113-127_116A [3])?
The A450 was 0.366 OD.

And the A450 (asyn_113-127_122A [4])?
Its A450 is 0.051 OD.

What about the A450 (asyn_113-127_125A) of the same binder?
The A450 was 0.05 OD.

What about the A450 (asyn_113-127_126A [5]) of the same binder?
The A450 was 0.342 OD.

What about the A450 (asyn_113-127_114A [6]) of the same binder?
Its A450 is 0.348 OD.

And the A450 (asyn_113-127_118A [7])?
Its A450 is 0.357 OD.

What about the A450 (asyn_113-127_117A) of the same binder?
The A450 was 0.405 OD.

What about the A450 (asyn_113-127_124G [8]) of the same binder?
Its A450 is 0.287 OD.

And the A450 (asyn_113-127 [9])?
Its A450 is 0.331 OD.

And the A450 [10]?
Its A450 is 0.767 OD.

And the A450 (asyn_113-127_120A [11])?
Its A450 is 0.18 OD.

What about the A450 (asyn_113-127_121A) of the same binder?
Its A450 is 0.335 OD.

What about the A450 (asyn_113-127_127A [12]) of the same binder?
The A450 was 0.414 OD.

And the A450 (asyn_113-127_123A [13])?
Its A450 is 0.321 OD.

What about the A450 (asyn_113-127_119A [14]) of the same binder?
The A450 was 0.046 OD.

And the A450 (asyn_113-127_113A [15])?
Its A450 is 0.151 OD.

What about the A450 (asyn_113-127_124P [16]) of the same binder?
Its A450 is 0.044 OD.

What about the A450 (asyn_113-127_114A [17]) of the same binder?
The A450 was 0.153 OD.

What about the A450 (asyn_113-127_118A [18]) of the same binder?
Its A450 is 0.169 OD.

What about the A450 (asyn_113-127_124G [19]) of the same binder?
The A450 was 0.145 OD.

And the A450 (asyn_113-127 [20])?
Its A450 is 0.149 OD.

What about the A450 [21] of the same binder?
The A450 was 0.243 OD.

What about the A450 (asyn_113-127_120A [22]) of the same binder?
Its A450 is 0.132 OD.

What about the A450 (asyn_113-127_123A [23]) of the same binder?
Its A450 is 0.171 OD.

And the A450 (asyn_113-127_119A [24])?
Its A450 is 0.05 OD.

And the A450 (asyn_113-127_113A [25])?
The A450 was 0.068 OD.

And the A450 (asyn_113-127_116A [26])?
The A450 was 0.071 OD.

And the A450 (asyn_113-127_122A [27])?
The A450 was 0.049 OD.

And the A450 (asyn_113-127_126A [28])?
Its A450 is 0.07 OD.

What about the A450 (asyn_113-127_114A [29]) of the same binder?
The A450 was 0.061 OD.

What about the A450 (asyn_113-127_127A [30]) of the same binder?
Its A450 is 0.066 OD.

What about the A450 (asyn_113-127_123A [31]) of the same binder?
The A450 was 0.068 OD.

And the A450 (asyn_113-127_119A [32])?
The A450 was 0.048 OD.

— patent US20230074436A1 (DENALI THERAPEUTICS, published 2023)
